# Results taken from PMC3405243, “Segmental isotopic labeling of a 140 kDa dimeric multi-domain protein CheA from Escherichia coli by expressed protein ligation and protein trans-splicing” (Journal of Biomolecular Nmr, 2012).
# Numbering of substitutions follows the chain as printed. In names and notes the source's numbering stands.
# T1: ligated CheA P1(Q153)/(S154C)P2–5 produced by expressed protein ligation (EPL) (E. coli, UniProt P07363 1-654, S154C)
# T1 construct: CheA, E. coli, amplified from genomic DNA of strain BL21; Inteins and CBD of both fragments were removed before ligation; also called ligation product of P1/P2–5; source: fragments expressed in E. coli BL21-CodonPlus (DE3)-RP, purified, ligated in vitro (EPL)
# T1 sequence (looked up): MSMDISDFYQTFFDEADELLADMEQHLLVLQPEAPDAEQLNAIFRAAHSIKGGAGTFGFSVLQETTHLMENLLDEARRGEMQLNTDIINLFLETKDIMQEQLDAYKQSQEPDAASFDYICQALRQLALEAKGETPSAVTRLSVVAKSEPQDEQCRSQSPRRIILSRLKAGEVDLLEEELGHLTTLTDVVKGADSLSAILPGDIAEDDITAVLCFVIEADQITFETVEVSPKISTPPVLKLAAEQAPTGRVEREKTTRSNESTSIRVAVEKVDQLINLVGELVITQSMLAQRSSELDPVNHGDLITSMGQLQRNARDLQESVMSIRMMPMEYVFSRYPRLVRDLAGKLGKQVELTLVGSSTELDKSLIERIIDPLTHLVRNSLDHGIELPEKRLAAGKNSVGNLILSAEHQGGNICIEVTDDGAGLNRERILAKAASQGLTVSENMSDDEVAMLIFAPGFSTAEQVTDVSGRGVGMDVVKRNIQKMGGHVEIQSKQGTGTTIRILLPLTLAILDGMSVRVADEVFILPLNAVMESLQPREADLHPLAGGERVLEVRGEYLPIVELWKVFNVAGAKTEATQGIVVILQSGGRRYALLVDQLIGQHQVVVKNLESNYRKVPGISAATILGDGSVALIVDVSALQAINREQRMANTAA
# B1: ligated CheA P1(Q153G)/(S154C)P2–5 produced by expressed protein ligation (EPL) (enzyme, E. coli, UniProt P07363 1-654, looked up)
# chain: T1 sequence (looked up) with Q153G
# notes: CheA, E. coli, amplified from genomic DNA of strain BL21; P1 fragment was made as a C-terminal Mxe GyrA intein-CBD fusion and P2–5 as an N-terminal CBD-Ssp DnaB intein fusion (pTWIN1); both inteins were removed before ligation; NMR samples were [2H,15N]-labeled in P1; UniProt entry is of strain K-12; the DNA was from strain BL21; also called Q153G/S154C dimer; ligated product
# B2: ligated CheA P12^(2)/^(5)P3–5 produced by protein trans-splicing (PTS) in vivo (enzyme, E. coli)
# chain: T1 sequence (looked up) with C154S, K239G, L240S, A241C, A242F, E243N, Q244G, A245T
# notes: CheA P12 domains, E. coli, amplified from genomic DNA of strain BL21, residues 1–238; stands instead of KLAAEQA of the P2-P3 linker; CheA P3–5 domains, E. coli, amplified from genomic DNA of strain BL21, residues 246–654; H6-Smt3 was removed with Ulp1; results and methods give a different order of SEC and tag removal, so its state at the SEC is open; P12 part [2H,15N]-labeled in the NMR sample; …
# B3: (S154C)P2–5 domains of CheA (domain or fragment, E. coli, UniProt P07363 154-654, looked up)
# chain: CRSQSPRRIILSRLKAGEVDLLEEELGHLTTLTDVVKGADSLSAILPGDIAEDDITAVLCFVIEADQITFETVEVSPKISTPPVLKLAAEQAPTGRVEREKTTRSNESTSIRVAVEKVDQLINLVGELVITQSMLAQRSSELDPVNHGDLITSMGQLQRNARDLQESVMSIRMMPMEYVFSRYPRLVRDLAGKLGKQVELTLVGSSTELDKSLIERIIDPLTHLVRNSLDHGIELPEKRLAAGKNSVGNLILSAEHQGGNICIEVTDDGAGLNRERILAKAASQGLTVSENMSDDEVAMLIFAPGFSTAEQVTDVSGRGVGMDVVKRNIQKMGGHVEIQSKQGTGTTIRILLPLTLAILDGMSVRVADEVFILPLNAVMESLQPREADLHPLAGGERVLEVRGEYLPIVELWKVFNVAGAKTEATQGIVVILQSGGRRYALLVDQLIGQHQVVVKNLESNYRKVPGISAATILGDGSVALIVDVSALQAINREQRMANTAA
# notes: CheA P2–5 domains, E. coli, amplified from genomic DNA of strain BL21, residues S154 to A654 with cysteine at the N-terminus; also called unreacted (S154C)P2–5; unreacted P2–5; source: E. coli BL21-CodonPlus (DE3)-RP, purified (chitin beads, intein cleavage); not shown: CBD-Ssp DnaB intein, N-terminal, cleaved
# How the values were obtained:
# [1] = biological target: the molecule itself; test: SEC; HiLoad 16/60 Superdex 200 prep grade, TEDG buffer (50 mM Tris pH 7.5, 0.5 mM EDTA, 2 mM DTT, 10% glycerol) with 150 mM NaCl; elution volume compared with immunoglobulin G (158 kDa)
# [2] = biological target: T1, ligated CheA P1(Q153)/(S154C)P2–5 …; test: co-purification (SEC, then separation by anion exchange chromatography); EPL reaction mixture of purified fragments; Superdex 200, then ResourceQ in TEDG buffer with a 0–500 mM NaCl gradient; heterodimer separated from the ligated homodimer; conditions: both partners purified
# [3] = biological target: B1; test: as above; conditions: both partners purified
binding result [2],binding result [3],Binder,stoichiometry N [1]
–,–,B1,2
–,–,B2,2
binds,binds,B3,–
